The experiment deals with EDB+FN (fibronectin containing the extra-domain B) on WI38-VA13 cells (human, UniProt P02751 32-2477). Briefly: cell-based or functional assay.
EDB+FN (fibronectin containing the extra-domain B) on WI38-VA13 cells, sequence (P02751 32-2477 limits assumed, form in doubt): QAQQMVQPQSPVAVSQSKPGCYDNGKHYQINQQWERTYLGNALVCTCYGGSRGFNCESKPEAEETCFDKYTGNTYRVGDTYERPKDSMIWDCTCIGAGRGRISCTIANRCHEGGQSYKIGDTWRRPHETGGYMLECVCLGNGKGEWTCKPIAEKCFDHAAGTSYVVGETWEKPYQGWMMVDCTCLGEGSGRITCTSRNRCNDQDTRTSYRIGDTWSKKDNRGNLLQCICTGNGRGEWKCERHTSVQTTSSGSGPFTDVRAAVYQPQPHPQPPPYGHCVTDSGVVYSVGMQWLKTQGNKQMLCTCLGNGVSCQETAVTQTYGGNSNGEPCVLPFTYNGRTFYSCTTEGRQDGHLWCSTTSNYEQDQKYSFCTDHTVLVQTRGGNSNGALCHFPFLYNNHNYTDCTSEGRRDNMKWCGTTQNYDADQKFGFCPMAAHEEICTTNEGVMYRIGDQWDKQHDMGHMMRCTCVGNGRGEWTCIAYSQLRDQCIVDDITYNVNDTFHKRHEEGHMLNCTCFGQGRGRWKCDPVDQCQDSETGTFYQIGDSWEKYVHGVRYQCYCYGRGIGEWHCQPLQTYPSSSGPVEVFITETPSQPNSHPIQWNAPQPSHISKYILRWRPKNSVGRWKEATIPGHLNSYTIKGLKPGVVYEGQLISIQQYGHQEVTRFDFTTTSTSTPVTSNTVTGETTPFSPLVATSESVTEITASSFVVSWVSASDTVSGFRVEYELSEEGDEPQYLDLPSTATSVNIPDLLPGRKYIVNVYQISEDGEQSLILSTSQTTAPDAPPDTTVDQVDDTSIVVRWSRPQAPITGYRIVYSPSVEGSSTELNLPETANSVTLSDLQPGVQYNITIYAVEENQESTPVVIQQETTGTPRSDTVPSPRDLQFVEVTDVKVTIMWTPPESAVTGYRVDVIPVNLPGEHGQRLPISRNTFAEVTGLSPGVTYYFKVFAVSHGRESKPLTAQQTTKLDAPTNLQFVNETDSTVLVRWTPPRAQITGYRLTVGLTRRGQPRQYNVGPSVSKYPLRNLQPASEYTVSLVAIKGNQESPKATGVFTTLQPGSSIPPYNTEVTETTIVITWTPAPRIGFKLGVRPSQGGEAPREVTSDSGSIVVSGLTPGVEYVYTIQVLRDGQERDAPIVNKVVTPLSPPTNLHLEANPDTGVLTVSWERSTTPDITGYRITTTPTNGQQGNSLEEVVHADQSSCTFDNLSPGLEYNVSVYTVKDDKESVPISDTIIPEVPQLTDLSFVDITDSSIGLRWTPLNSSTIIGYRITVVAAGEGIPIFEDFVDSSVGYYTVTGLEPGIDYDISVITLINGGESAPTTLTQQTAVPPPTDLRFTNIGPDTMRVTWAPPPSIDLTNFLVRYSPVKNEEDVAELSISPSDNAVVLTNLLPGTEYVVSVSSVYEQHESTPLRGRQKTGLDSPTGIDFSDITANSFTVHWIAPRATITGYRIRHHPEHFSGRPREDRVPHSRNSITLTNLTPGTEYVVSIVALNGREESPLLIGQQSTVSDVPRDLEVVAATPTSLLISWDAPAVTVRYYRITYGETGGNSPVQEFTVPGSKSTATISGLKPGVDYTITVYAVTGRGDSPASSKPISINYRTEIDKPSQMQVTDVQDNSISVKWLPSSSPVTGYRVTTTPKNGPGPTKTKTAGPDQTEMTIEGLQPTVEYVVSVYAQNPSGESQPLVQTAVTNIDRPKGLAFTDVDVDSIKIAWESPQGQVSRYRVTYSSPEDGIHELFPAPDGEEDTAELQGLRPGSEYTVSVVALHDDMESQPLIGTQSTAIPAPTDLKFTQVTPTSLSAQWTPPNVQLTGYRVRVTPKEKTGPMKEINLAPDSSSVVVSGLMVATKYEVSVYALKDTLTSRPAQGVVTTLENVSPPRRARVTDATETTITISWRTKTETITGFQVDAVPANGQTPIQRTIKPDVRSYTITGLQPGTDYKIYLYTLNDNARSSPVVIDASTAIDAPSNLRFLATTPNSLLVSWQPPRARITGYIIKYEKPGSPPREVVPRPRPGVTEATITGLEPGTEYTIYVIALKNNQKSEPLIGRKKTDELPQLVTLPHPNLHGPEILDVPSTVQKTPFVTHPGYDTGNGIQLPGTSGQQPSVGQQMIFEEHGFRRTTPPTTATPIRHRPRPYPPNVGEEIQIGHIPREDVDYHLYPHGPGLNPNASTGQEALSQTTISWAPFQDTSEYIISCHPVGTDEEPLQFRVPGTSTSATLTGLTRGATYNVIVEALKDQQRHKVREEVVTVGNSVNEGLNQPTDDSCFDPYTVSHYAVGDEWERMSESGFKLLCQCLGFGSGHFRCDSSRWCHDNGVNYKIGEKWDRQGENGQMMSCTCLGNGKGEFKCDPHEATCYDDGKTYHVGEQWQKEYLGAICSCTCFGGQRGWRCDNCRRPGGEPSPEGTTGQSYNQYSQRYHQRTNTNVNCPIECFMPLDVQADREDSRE

B1: EDB-(K94R)-vc-0101 (antibody, human IgG1, kappa)
heavy: not shown
light: EIVLTQSPGTLSLSPGERATLSCRASQSVSSSFLAWYQQKPGQAPRLLIYYASSRATGIPDRFSGSGSGTDFTLTISRLEPEDFAVYYCQQTGRIPPTFGQGTKVEIKRTVAAPSVFIFPPSDEQLKSGTASVVCLLNNFYPREAKVQWKVDNALQSGNSQESVTEQDSKDSTYSLSSTLTLSKADYEKHKVYACEVTHQGLSSPVTKSFNRGEC
modifications: vc-0101 linker-payload on cysteine residues (conventional conjugation, Method A); vc-0101 linker-payload on cysteine residues (conventional conjugation, Method A); average DAR 3.7 (LC/MS)
As for B1, the “Avg IC50, in vitro cytotoxicity on WI38-VA13 cells (Cell Titer Glo, 4 days)” value was 184 ng/ml of antibody.

B2: EDB-(κK183C-K94R-K290C)-vc-0101 (antibody, human IgG1, kappa)
heavy: not shown
light: EIVLTQSPGTLSLSPGERATLSCRASQSVSSSFLAWYQQKPGQAPRLLIYYASSRATGIPDRFSGSGSGTDFTLTISRLEPEDFAVYYCQQTGRIPPTFGQGTKVEIKRTVAAPSVFIFPPSDEQLKSGTASVVCLLNNFYPREAKVQWKVDNALQSGNSQESVTEQDSKDSTYSLSSTLTLSCADYEKHKVYACEVTHQGLSSPVTKSFNRGEC
modifications: vc-0101 linker-payload on engineered Cys 183 (κK183C, Kabat), Method B; vc-0101 linker-payload on engineered Cys 290 (K290C, EU index), Method B; average DAR 3.8 (LC/MS)
For the molecule B2, the “Avg IC50, in vitro cytotoxicity on WI38-VA13 cells (Cell Titer Glo, 4 days)” value was 216 ng/ml of antibody.

These data come from patent US20240261423A1 (Pfizer, published 2024).
